Laboratory results taken from US20160200831A1 (Sanofi, published 2016).

Key:
human PAI-1 [1] = target: T1, human PAI-1 (human, UniProt P05121 24-402); assay: Biacore, hybridoma supernatant
T1 construct: also used for endogenous PAI-1 of human plasma, liver lysate and lung fibroblasts; also called hPAI-1; hPAI

cynomolgus PAI-1 [2] = target: T2, cynomolgus PAI-1 (cynomolgus monkey (Macaca fascicularis), UniProt P05121 24-402 (human entry)); assay: Biacore, hybridoma supernatant
T2 construct: produced in-house in E. coli (non-glycosylated); active cyno PAI-1 in the assays; also called cyno PAI-1; cPAI-1
T2 sequence (P05121 other isoform, or with tags, fused parts or gaps limits assumed): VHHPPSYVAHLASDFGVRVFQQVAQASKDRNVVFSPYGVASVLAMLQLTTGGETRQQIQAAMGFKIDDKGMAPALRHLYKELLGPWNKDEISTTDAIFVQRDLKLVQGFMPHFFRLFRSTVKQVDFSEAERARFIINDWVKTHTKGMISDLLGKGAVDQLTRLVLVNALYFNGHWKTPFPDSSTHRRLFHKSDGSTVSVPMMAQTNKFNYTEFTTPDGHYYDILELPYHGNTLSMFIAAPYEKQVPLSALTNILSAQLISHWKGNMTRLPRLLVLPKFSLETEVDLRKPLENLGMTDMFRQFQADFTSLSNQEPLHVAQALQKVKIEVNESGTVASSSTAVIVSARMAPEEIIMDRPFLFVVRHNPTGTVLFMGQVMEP

[3] = target: T3, glycosylated human PAI-1 (active form) (human, UniProt P05121 24-402, glycosylated); assay: cell-based or functional assay
T3 sequence (P05121 24-402 limits assumed): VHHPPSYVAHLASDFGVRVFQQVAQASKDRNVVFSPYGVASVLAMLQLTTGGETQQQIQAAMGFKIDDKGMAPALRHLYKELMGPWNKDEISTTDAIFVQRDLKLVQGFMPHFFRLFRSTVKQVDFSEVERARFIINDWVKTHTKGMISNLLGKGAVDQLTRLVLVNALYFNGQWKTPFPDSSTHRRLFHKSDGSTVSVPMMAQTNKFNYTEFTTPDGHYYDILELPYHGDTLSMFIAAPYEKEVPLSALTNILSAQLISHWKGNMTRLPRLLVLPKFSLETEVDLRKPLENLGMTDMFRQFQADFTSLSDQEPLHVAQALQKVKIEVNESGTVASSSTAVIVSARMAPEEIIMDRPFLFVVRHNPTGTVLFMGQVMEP

[4] = target: T3, glycosylated human PAI-1 (active form); assay: cell-based or functional assay; remark: listed apart in the source
[5] = target: T3, glycosylated human PAI-1 (active form); assay: Biacore (summary table)
Protocol: (§1) In kinetics measurement, the antibodies were evaluated in reverse at 25° C. In the reverse assay, PAI-1 antibodies were captured to the anti-mouse IgG Fc antibody surface prepared on CM5 chip followed by injecting the serial 2× dilutions of PAI-1 proteins (human or cyno) starting at 40 nM. A high flow rate was chosen at 50 ul/min to avoid mass transportation limitation. Two thousand seconds was allowed for dissociation time to accommodate for the slow off rate of the selected antibodies. The chip was regenerated by glycine-HCl, pH 1.7 buffer after each round of antibody-PAI-1 binding. Kinetics data analysis was performed using Biacore BIAevaluation software. The sensorgrams were double-referenced by subtracting the reference flow cell values and the blank buffer values. The sensorgrams were fitted by using the simulated kinetics 1:1 (Langmuir) model with local Rmax.

human PAI-1 [6] = target: T1, human PAI-1; assay: Biacore reverse assay, mAb captured by anti-mouse IgG Fc, 25 C
Protocol: as §1

human PAI-1 [7] = target: T1, human PAI-1; assay: cell-based or functional assay
[8] = target: T4, human PAI-1 captured on immobilized human vitronectin (human, UniProt P04004 20-478); assay: Biacore, hPAI-1 on vitronectin chip, two state reaction model (kd1)
T4 construct: non-covalent complex formed on the chip or plate; also called PAI-1/Vn complex; Vn captured hPAI-1
T4 sequence (chain, as listed by the source limits assumed, chain 1 of 2): as the sequence (P05121 24-402 limits assumed) above
T4 sequence (P04004 20-478 limits assumed, chain 2 of 2): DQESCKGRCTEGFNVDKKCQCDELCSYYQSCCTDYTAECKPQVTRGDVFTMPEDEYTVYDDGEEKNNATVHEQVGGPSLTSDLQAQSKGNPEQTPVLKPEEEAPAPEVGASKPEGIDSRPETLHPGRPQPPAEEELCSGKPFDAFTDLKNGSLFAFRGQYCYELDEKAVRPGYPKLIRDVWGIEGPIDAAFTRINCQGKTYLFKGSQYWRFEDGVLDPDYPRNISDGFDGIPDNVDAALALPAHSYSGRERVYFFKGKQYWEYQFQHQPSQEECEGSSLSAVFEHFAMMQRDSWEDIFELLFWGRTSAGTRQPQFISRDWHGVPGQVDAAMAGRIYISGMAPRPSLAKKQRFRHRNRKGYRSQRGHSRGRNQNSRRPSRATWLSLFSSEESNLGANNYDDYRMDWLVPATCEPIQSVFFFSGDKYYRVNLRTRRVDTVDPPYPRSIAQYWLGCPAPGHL

[9] = target: T4, human PAI-1 captured on immobilized …; assay: Biacore, hPAI-1 on vitronectin chip, two state reaction model (ka1)
[10] = target: T4, human PAI-1 captured on immobilized …; assay: Biacore, hPAI-1 on vitronectin chip, two state reaction model
[11] = target: T5, cyno PAI-1 captured on immobilized human vitronectin (cynomolgus monkey; human, UniProt P04004 20-478, limits assumed); assay: Biacore, cPAI-1 on vitronectin chip, two state reaction model
T5 construct: non-covalent complex formed on the chip; also called cPAI-1/Vn
T5 sequence (chain, as listed by the source limits assumed, chain 1 of 2): as the sequence (P05121 other isoform, or with tags, fused parts or gaps limits assumed) above
T5 sequence (P04004 20-478 limits assumed, chain 2 of 2): as the sequence (P04004 20-478 limits assumed, chain 2 of 2) above

[12] = target: T5, cyno PAI-1 captured on immobilized …; assay: Biacore, cPAI-1 on vitronectin chip, two state reaction model (ka1)
[13] = target: T5, cyno PAI-1 captured on immobilized …; assay: Biacore, cPAI-1 on vitronectin chip, two state reaction model (kd1)
human PAI-1 [14] = target: T1, human PAI-1; assay: cell-based or functional assay; remark: listed apart in the source
[15] = target: T3, glycosylated human PAI-1 (active form); assay: cell-based or functional assay; remark: listed apart in the source
cynomolgus PAI-1 [16] = target: T2, cynomolgus PAI-1; assay: Biacore, mAb on anti-human IgG Fc chip / cyno PAI-1, 1:1 model
human PAI-1 [17] = target: T1, human PAI-1; assay: cell-based or functional assay; remark: listed apart in the source
cynomolgus PAI-1 [18] = target: T2, cynomolgus PAI-1; assay: cell-based or functional assay
human PAI-1 [19] = target: T1, human PAI-1; assay: Biacore, mAb on anti-human IgG Fc chip, 1:1 model
human PAI-1 [20] = target: T1, human PAI-1; assay: cell-based or functional assay; remark: listed apart in the source
[21] = target: T3, glycosylated human PAI-1 (active form); assay: SPR Biacore 2000, mAb captured by anti-Fc, single-cycle kinetics, 1:1 model
Protocol: First, the surface of a Sensor Chip CM5 (GE Healthcare, Uppsala, Sweden) was prepared using routine amine coupling for the capture of the mouse and human anti-Fc (Anti-human IgG (Fc) antibody & Anti-mouse IgG antibody kits, GE Healthcare). All monoclonal antibodies (mAbs) were diluted to 5 nM using HBS-EP running buffer. Each purified mAb was captured for three minutes on a different flow cell surface. Human PAI-1 was injected at various concentrations (2.5, 5, 10, 20 and 40 nM) with short dissociation times in between and a long dissociation time at the end (contact time: 120 seconds, short dissociation: 90 seconds; long dissociation: 1800 seconds, flow rate: 50 μl/min). The chip was regenerated by glycine-HCl, pH 1.7 buffer after each round of antibody-PAI-1 binding. Kinetics data analysis was performed using Biacore BIAevaluation software. The sensorgrams were double-referenced by subtracting the reference flow cell values and the blank buffer values. The sensorgrams were fitted by using the simulated kinetics 1:1 (Langmuir) model with local Rmax. (see FIG. 19).

[22] = target: T3, glycosylated human PAI-1 (active form); assay: cell-based or functional assay; remark: listed apart in the source

T1 sequence (P05121 24-402 limits assumed): as the sequence (P05121 24-402 limits assumed) above

B1: A71 (antibody, mouse IgG1, V domains shown)
VH: QVQLQQSGAELMKPGASVKISCKATGFTFSTYWIEWIKQRPGHGLDWIGEILPGSGNTNYNEKFKGKATFTADTSSNTVYMQLSSLTSEDSAVYYCARGGLYYNLDSWGQGTTLTVSS
VL: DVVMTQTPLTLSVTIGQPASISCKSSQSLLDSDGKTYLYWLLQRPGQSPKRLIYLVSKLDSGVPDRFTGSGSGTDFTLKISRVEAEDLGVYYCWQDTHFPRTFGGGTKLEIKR
notes: mouse IgG1/kappa; also called mA71; A71 (IgG1/k)
For B1, the koff (human PAI-1 [1]) was ≤ 0.0001 s⁻¹, the binding result (cynomolgus PAI-1 [2]) was “binds” and the “plasmin generation, hepatic stellate cells, IC50abs” value (“plasmin generation … IC50abs” for short) [3] was 8.61 nM. The “plasmin generation, hepatic stellate cells, Imax” value (shortened to “plasmin generation … Imax”) [3] was 90%, the “Chromogenic Assays” value [4] was ~4 nM and the “Plasmin Generation” value [4] was 8.61 nM.

B2: A105 (antibody, mouse IgG1, V domains shown)
VH: QVQLQQSGAELMKPGASVKISCKATGFTFSIYWIEWVKQRPGLGLEWIGEILPGSGSTNYNEKFKGKATFTADTSSNTAFMQLSSLTSEDSAVYYCARGGLYYDLDYWGQGTILTVSS
VL: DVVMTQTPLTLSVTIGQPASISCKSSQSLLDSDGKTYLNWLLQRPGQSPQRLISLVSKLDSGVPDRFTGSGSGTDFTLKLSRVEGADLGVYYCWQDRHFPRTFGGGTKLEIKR
notes: mouse IgG1/kappa; also called mA105; A105 (IgG1/k)
In the case of B2, the Kd [5] is reported as 0.042 nM, the koff (human PAI-1 [1]) is reported as ≤ 0.0001 s⁻¹ and the binding result (cynomolgus PAI-1 [2]) is reported as “binds”. The “plasmin generation … IC50abs” value [3] was 27 nM, the “plasmin generation … Imax” value [3] was 88% and the “Chromogenic Assays” value [4] was 7 nM. The “Plasmin Generation” value [4] was 27 nM, the Kd (human PAI-1 [6]) was 0.0423 nM and the koff (human PAI-1 [6]) was 0.000164 s⁻¹.

B3: E16 (antibody, mouse IgG1, V domains shown)
VH: EVKLVESGGGLVKPGGSLKLSCAASGFTFSNYGMSWVRQTPEKGLGWVASLRTGGNTYYSDSVKGRFTISRDNDRNILYLQMSSLTSEDTAVYYCARGLRHWGYFDVWGAGTTVTVSS
VL: DIVMTQSHKFMSTSVGDRVNITCKASQDVSTAVGWYQQEPGQSPKLLIYSASNRHTGVPDRFTGSGSGTDFTFTISSVQAEDLAVYYCQQHYSSPWTFGGGTKLEIK
notes: mouse IgG1; also called mE16; E16 (IgG1)
B3 was tested, and the koff (human PAI-1 [1]) was ≤ 0.0001 s⁻¹, the “plasmin generation … IC50abs” value [3] was 4.74 nM and the “plasmin generation … Imax” value [3] was 95%. The “Chromogenic Assays” value [4] was 1.1 nM, the “Plasmin Generation” value [4] was 4.74 nM and the “EC50, % neutralization of hPAI-1 (chromogenic assay)” value (human PAI-1 [7]) was 1.24 nM.

B4: E21 (antibody, mouse IgG2b, V domains shown)
VH: EVQLQQSGAELVRSGASVKLSCTASGFNIKDYYMHWVKQRPEQGLEWIGWIDPENGDTEYDPKFQAKATMTADTSSNTAYLQLSSLTSEDTAVYYCMYGNYPYYFDYWGQGTTLTVSS
VL: DIQMTQTTSSLSASLGDRVTISCRASQDISNYLNWYQQKPDGTVKLLIYYTSRLHSGVPSRFSGSGSGTDYSLTISNLEQEDIATYFCQQGNTLPWTFGGGTKLEIK
notes: mouse IgG2b; also called mE21; E21 (IgG2b)
In the case of B4, the koff (human PAI-1 [1]) is reported as ≤ 0.0001 s⁻¹, the “Chromogenic Assays” value [4] is reported as 1.3 nM and the “Plasmin Generation” value [4] is reported as 216 nM. For the same binder, the “EC50, % neutralization of hPAI-1 (chromogenic assay)” value (human PAI-1 [7]) was 1.08 nM.

B5: A44-hv7 (antibody, V domains shown)
VH: QMTLKESGPTLVKPTQTLSLTCSVSGESMTQGYWNWIRQFPGKALEYMGYITYSGSTYYNPSLKGRITITRQTSKNQYYLTLSSVTTVETATYYCARWHYGSPYYFDYWGQGTTLTVSS
VL: DIKMTQSPSSLSASVGDRVTITCKASQDINSYLSWLQQKPGKSPKTLIYRAQRSVEGVPSRFSGSGSGQDYSLTISSLQPEDLATYYCLQYDEFPPTFGGGTKLEIK
notes: humanized A44, HEK293; constant regions as for A44-hv1; also called LC4 x HC4; variant 7
In the case of B5, the koff [8] is reported as 0.000394 s⁻¹, the kon [9] is reported as 4.14e+06 M⁻¹ s⁻¹ and the Kd [10] is reported as 0.0964 nM. It also gave a Kd [11] of 0.0956 nM, a kon [12] of 2.5e+06 M⁻¹ s⁻¹ and a koff [13] of 0.000239 s⁻¹. The “Chromogenic Assay IC50” value (human PAI-1 [14]) was 0.59 nM.

B6: A44-hv13 (antibody, V domains shown)
VH: QMQLQESGPGLVKPSETLSLTCTVSGDSMTNGYWNWIRQPPGKGLEYMGYITYSGSTYYNPSLKSRITISRDTSKNQYSLKLSSVTAADTAVYYCARWHYGSPYYFDYWGQGTLVTVSS
VL: DIKMTQSPSSLSASVGDRVTITCKASQDINSYLSWLQQKPGKSPKTLIYRAQRSVEGVPSRFSGSGSGQDYSLTISSLQPEDLGIYYCLQYDEFPPTFGGGTKLEIK
notes: humanized A44, HEK293; constant regions as for A44-hv1; also called LC2 x HC5b; variant 13
For B6, the koff [8] was 0.000436 s⁻¹, the kon [9] was 2.4e+06 M⁻¹ s⁻¹ and the Kd [10] was 0.179 nM. For the same binder, the “Plasminogen Activation IC50” value [15] was 1.82 nM, the “Plasminogen Activation Y50%” value [15] was 71.1% and the Kd [11] was 0.115 nM. For the same binder, the Kd (cynomolgus PAI-1 [16]) was 0.027 nM, the koff (cynomolgus PAI-1 [16]) was 5.08e-05 s⁻¹ and the kon (cynomolgus PAI-1 [16]) was 1.89e+06 M⁻¹ s⁻¹. The kon [12] was 2.12e+06 M⁻¹ s⁻¹, the koff [13] was 0.000243 s⁻¹ and the “active PAI-1 by uPA-PAI-1 complex ELISA, hPAI-1 Standard, IC50” value (human PAI-1 [17]) was 0.166 nM. For the same binder, the “active PAI-1 by uPA-PAI-1 complex ELISA, hPAI-1 Standard, Y50%” value (human PAI-1 [17]) was 52.8%, the “active PAI-1 by uPA-PAI-1 complex ELISA, hPlasma TH1782, IC50” value (human PAI-1 [17]) was 0.0311 nM and the “active PAI-1 by uPA-PAI-1 complex ELISA, hPlasma TH1782, Y50%” value (human PAI-1 [17]) was 61.4%. The “active PAI-1 by uPA-PAI-1 complex ELISA, Cyno PAI-1, IC50” value (cynomolgus PAI-1 [18]) was 0.0281 nM, the “active PAI-1 by uPA-PAI-1 complex ELISA, Cyno PAI-1, Y50%” value (cynomolgus PAI-1 [18]) was 52.8% and the Kd (human PAI-1 [19]) was 0.0164 nM. It also gave a koff (human PAI-1 [19]) of 2.52e-05 s⁻¹ and a kon (human PAI-1 [19]) of 1.54e+06 M⁻¹ s⁻¹.

B7: APGv4 (antibody, V domains shown)
VH: QVQLVQSGAEVKKPGASVKVSCKASGYSFTDYNMNWVRQAPGQGLEWIGIIHPNSGTTTYNQKFKGRATLTVDQSTSTAYMELSSLRSEDTAVYYCARSKLRFFDYWGQGTLVTVSS
VL: DIQLTQSPSSLSASVGDRVTITCKASQDIYSYLSWFQQKPGKAPKTLIYRANRLIDGVPSRFSGSGSGQDYTFTISSLQPEDIATYYCLQYDEFPFTFGQGTKLEIK
notes: humanized APG; captured by anti-human IgG (Fc); also called APG variant 4
B7 was tested, and the “PAI-1 activity in human plasma (uPA-PAI-1 complex ELISA), IC50abs” value (human PAI-1 [20]) was 1.28 nM, the “PAI-1 activity in human plasma (uPA-PAI-1 complex ELISA), Imax” value (human PAI-1 [20]) was 94.4% and the Kd [21] was 0.038 nM. For the same binder, the koff [21] was 0.000359 s⁻¹, the “human plasma clot lysis, IC50” value [22] was 2.82 nM and the “human plasma clot lysis, Imax @ 100 nM” value [22] was 116%.
